{"source": "patent US10588946B2", "about": "“Peptide for promoting bone formation or inhibiting bone resorption and use thereof” (SEOUL NATIONAL UNIVERSITY R&DB FOUNDATION, priority 2015, dated 2020)", "molecules": {"B1": {"name": "rVn-FII: recombinant human vitronectin truncation, 173 residues, amino acids at positions 150 to 322 (protein)", "chain": "PAEEELCSGKPFDAFTDLKNGSLFAFRGQYCYELDEKAVRPGYPKLIRDVWGIEGPIDAAFTRINCQGKTYLFKGSQYWRFEDGVLDPDYPRNISDGFDGIPDNVDAALALPAHSYSGRERVYFFKGKQYWEYQFQHQPSQEECEGSSLSAVFEHFAMMQRDSWEDIFELLFW", "modifications": "rVn-FII"}, "B2": {"name": "rVn-FIII: recombinant human vitronectin truncation III expressed in E. coli (protein)", "chain": "GRTSAGTRQPQFISRDWHGVPGQVDAAMAGRIYISGMAPRPSLAKKQRFRHRNRKGYRSQRGHSRGRNQNSRRPSRATWLSLFSSEESNLGANNYDDYRMDWLVPATCEPIQSVFFFSGDKYYRVNLRTRRVDTVDPPYPRSIAQYWLGCPAPGHL", "modifications": "rVn-FIII", "notes": "recombinant human vitronectin truncation III expressed in E. coli"}, "B3": {"name": "rVn-FI: recombinant human vitronectin truncation I expressed in E. coli (protein)", "chain": "DQESCKGRCTEGFNVDKKCQCDELCSYYQSCCTDYTAECKPQVTRGDVFTMPEDEYTVYDDGEEKNNATVHEQVGGPSLTSDLQAQSKGNPEQTPVLKPEEEAPAPEVGASKPEGIDSRPETLHPGRPQP", "modifications": "rVn-FI", "notes": "recombinant human vitronectin truncation I expressed in E. coli"}, "B4": {"name": "human plasma vitronectin: Human vitronectin purchased from Millipore (protein, UniProt P04004 20-478, looked up)", "Vitronectin": "DQESCKGRCTEGFNVDKKCQCDELCSYYQSCCTDYTAECKPQVTRGDVFTMPEDEYTVYDDGEEKNNATVHEQVGGPSLTSDLQAQSKGNPEQTPVLKPEEEAPAPEVGASKPEGIDSRPETLHPGRPQPPAEEELCSGKPFDAFTDLKNGSLFAFRGQYCYELDEKAVRPGYPKLIRDVWGIEGPIDAAFTRINCQGKTYLFKGSQYWRFEDGVLDPDYPRNISDGFDGIPDNVDAALALPAHSYSGRERVYFFKGKQYWEYQFQHQPSQEECEGSSLSAVFEHFAMMQRDSWEDIFELLFWGRTSAGTRQPQFISRDWHGVPGQVDAAMAGRIYISGMAPRPSLAKKQRFRHRNRKGYRSQRGHSRGRNQNSRRPSRATWLSLFSSEESNLGANNYDDYRMDWLVPATCEPIQSVFFFSGDKYYRVNLRTRRVDTVDPPYPRSIAQYWLGCPAPGHL"}}, "key": {"[1]": {"tested_on": "osteogenic cells", "test": "Cell spreading assay on coated plates", "type": "cell-based, human", "details": "serum-free medium, 3 hours", "source_text": "(§1) Plates were gently washed three times with PBS."}, "[2]": {"tested_on": "rat models with critical-size calvarial defects", "test": "Rat critical-size calvarial defect model", "type": "in vivo", "details": "collagen sponge implant, two weeks after surgery", "experimental": "For critical-size calvarial defects, 8-week-old male Sprague-Dawley rats (n=5 rats/group) were used. VnP-16 was dissolved in DDW and SP in DMSO (5 mg/mL) and then diluted with DDW. Absorbable collagen sponges (Bioland) were loaded with human recombinant BMP-2 (4 μg/cm^2, 15 μL volume; PeproTech), synthetic peptides (1 mg/cm^2 and 2 mg/cm^2, 15 μL volume), or vehicle (10 μL of DMSO and 5 μL of DDW). The surgical procedures for the creation of an 8 mm circular defect in the parietal bone and implantation of the collagen sponge were performed as described in the reference (Lee, J. H., et al., Biomaterials, 31, 3512 to 3519 (2010)). The rats were euthanized at 2 weeks after surgery, and whole calvaria were fixed in 4% paraformaldehyde at 4° C. for 24 hours and analyzed by μCT scanning. Details for the μCT scans are illustrated below.\nFor histomorphometric analysis, the specimens were decalcified with 12% EDTA for 4 weeks and embedded in paraffin. […] The mice were sacrificed on day 7, and the whole calvariae were dissected, cleaned of soft tissue, fixed in 4% paraformaldehyde at 4° C. for 24 hours, subjected to TRAP staining, and then analyzed by μCT scanning. μCT was performed with the Micro-CT Skyscan 1172 system (70 kV, 141 μA, and 38 minutes integration time; Skyscan). […] The regenerated bone volume and bone mineral content were calculated with CT Analyser version 1.14.4.1 (Bruker-microCT). […]"}, "[3]": {"target": "T1, β1 integrin (Homo sapiens, UniProt P05556)", "T1 construct": "osteogenic cells that were transfected with a control (Con) siRNA (10 nM) or β1 integrin siRNA (10 nM); endogenous in cells; host or cells: human osteogenic cells differentiated from foreskin skin-derived precursors (SKPs)", "T1 sequence (P05556 21-798)": "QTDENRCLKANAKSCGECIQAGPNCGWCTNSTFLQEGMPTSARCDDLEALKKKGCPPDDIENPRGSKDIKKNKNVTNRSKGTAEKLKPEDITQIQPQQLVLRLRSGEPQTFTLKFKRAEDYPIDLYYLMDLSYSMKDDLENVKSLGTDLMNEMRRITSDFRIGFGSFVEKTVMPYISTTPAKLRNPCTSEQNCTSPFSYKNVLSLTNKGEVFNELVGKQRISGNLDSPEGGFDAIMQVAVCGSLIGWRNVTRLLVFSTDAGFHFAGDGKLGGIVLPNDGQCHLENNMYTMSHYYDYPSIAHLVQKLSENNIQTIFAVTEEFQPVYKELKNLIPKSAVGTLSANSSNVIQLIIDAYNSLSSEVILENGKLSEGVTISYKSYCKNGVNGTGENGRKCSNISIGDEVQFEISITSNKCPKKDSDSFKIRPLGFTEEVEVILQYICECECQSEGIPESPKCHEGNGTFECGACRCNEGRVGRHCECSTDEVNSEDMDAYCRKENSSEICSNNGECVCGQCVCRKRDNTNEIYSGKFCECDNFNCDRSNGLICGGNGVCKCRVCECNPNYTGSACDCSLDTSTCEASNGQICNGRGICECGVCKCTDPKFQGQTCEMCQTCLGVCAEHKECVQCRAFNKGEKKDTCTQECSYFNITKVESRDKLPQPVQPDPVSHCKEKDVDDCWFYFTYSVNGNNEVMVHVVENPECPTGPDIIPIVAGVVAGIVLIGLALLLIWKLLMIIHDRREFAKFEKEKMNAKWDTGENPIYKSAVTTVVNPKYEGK", "test": "Pulldown assay with biotinylated VnP-16", "type": "binding", "details": "human osteogenic cells and HOS cells, 3 hours; vs streptavidin beads alone", "experimental": "Pulldown assays were performed using a biotinylated VnP-16 peptide according to a known method (Bottcher, R. T., Bio protocol 3, e962 (2013)). […] Cells (3×10^6) were seeded onto 100 mm culture dishes coated with biotin-conjugated VnP-16 peptides, incubated for 3 hours, and washed twice with cold PBS. The cells were scraped with 500 μL lysis buffer (50 mM Tris-HCl, pH 7.5, 150 mM NaCl, 0.1% Na-deoxycholate, 1% Triton X-100, protease, and phosphatase inhibitor cocktail tablets) followed by passing the lysates 15 times through a 26.5-gauge needle and centrifuging at 17,000×g for 10 minutes at 4° C. The supernatants of the cell lysates were incubated with 60 μL of streptavidin-agarose beads (Thermo Fisher Scientific, Waltham, Mass.) and centrifuged at 1,500×g for 2 minutes at 4° C. After washing the beads four times with lysis buffer, the precipitated proteins were resolved by 8% SDS-PAGE and analyzed by immunoblotting."}, "[4]": {"tested_on": "osteogenic cells, NHDFs, NHOFs, MC3T3-E1, and NIH/3T3 cells", "test": "Cell viability assay (water-soluble tetrazolium salt, WST)", "type": "cell-based, human", "details": "VnP-16 for 24 hours and 48 hours", "experimental": "The viability of human osteogenic cells was analyzed using the EZ-Cytox cell viability assay kit (water-soluble tetrazolium salt (WST) assay; Daeillab). Osteogenic cells (3×10^3 cells/100 μL) were seeded on a 96-well microplate, adapted for 48 hours, and treated with 50 μg/mL, 100 μg/mL, or 200 μg/mL of VnP-16 at 37° C. for 24 hours or 48 hours. The WST reagent solution (10 μL) was added to each well of the 96-well microplate containing 100 μL of cells. The plate was incubated at 37° C. for 2 hours. The absorbance was measured at 450 nm using a microplate reader (BioRad)."}, "[5]": {"tested_on": "BMMs", "test": "Proliferation and viability of BMMs", "type": "cell-based, mouse", "details": "9.1 μg/cm^2"}, "[6]": {"tested_on": "mature osteoclasts", "test": "Viability of mature osteoclasts (surviving osteoclasts after TRAP staining)", "type": "cell-based, mouse", "details": "24 hours, 9.1 μg/cm^2", "experimental": "The results of FIGS. 12b and 12c are expressed as mean±S.D. (n=4) ([…].)\nMature osteoclasts were cultured for 24 hours on Osteo Assay Surface plates precoated with vehicle (DMSO), SP (9.1 μg/cm^2), or VnP-16 (9.1 μg/cm^2), in the presence of M-CSF (30 ng/mL) and RANKL (100 ng/mL)."}, "[7]": {"target": "FAK (Homo sapiens, UniProt Q05397)", "sequence (Q05397 whole entry)": "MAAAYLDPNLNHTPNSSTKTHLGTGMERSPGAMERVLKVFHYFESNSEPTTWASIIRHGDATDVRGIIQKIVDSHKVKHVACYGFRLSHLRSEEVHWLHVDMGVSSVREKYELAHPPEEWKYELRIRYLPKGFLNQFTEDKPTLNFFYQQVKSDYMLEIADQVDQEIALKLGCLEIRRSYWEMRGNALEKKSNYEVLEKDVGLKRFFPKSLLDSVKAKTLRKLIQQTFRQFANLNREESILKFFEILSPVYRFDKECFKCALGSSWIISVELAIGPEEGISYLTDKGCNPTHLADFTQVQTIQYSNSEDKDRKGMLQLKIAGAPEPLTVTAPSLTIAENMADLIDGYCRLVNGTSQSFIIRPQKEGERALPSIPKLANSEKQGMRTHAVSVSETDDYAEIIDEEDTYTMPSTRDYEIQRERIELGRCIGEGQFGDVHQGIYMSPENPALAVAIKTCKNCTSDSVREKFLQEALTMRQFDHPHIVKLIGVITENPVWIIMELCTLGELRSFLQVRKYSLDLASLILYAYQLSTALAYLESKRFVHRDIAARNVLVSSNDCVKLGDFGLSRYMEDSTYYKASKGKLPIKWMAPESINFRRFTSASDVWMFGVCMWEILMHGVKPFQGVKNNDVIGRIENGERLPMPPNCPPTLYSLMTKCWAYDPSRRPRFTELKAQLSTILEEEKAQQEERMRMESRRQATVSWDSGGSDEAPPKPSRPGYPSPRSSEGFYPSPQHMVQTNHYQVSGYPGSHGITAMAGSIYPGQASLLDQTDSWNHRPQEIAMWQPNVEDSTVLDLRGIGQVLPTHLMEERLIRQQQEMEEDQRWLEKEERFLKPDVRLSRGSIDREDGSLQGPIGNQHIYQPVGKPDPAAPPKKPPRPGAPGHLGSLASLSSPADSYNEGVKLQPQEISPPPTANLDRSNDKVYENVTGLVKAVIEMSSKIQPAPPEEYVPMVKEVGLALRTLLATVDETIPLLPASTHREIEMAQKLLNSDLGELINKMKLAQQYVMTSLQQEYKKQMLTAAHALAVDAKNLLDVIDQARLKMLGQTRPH", "details": "pretreated 1 hour; VnP-16 9.1 μg/cm^2"}, "[8]": {"tested_on": "osteoblast precursors and osteogenic cells", "method": "SKP-derived mesenchymal cells (MSCs), mouse calvarial osteoblast precursors (MC3T3-E1), and human osteogenic cells (Osteogenic) were cultured on VnP-16 (9.1 μg/cm^2)-coated plates in osteogenic differentiation medium with or without PF-573228 (1 μM) for 2 weeks.\nTo visualize mineral deposits, cells were fixed with cold 95% ethanol for 30 minutes at −20° C. for 30 minutes and stained with 40 mM Alizarin red S solution (pH 4.2) for 1 hour. The stained cells were washed five times with DDW and rinsed with PBS for 15 minutes."}, "[9]": {"tested_on": "osteogenic cells", "test": "Adhesion inhibition assay (cell attachment to VnP-16 after preincubation)", "type": "cell-based, human", "details": "5 mM EDTA, 500 μM MnCl2, 100 μg/mL heparin, 10 μg/mL blocking antibody; VnP-16 9.1 μg/cm^2, 1 hour", "experimental": "Cells (5×10^4 cells/250 μL) were preincubated with 5 mM EDTA, 500 μM MnCl2, 100 μg/mL heparin, and 10 μg/mL function-blocking antibodies against integrin α1 (FB12), α2 (P1E6), α3 (P1B5), α4 (P4C2), α5 (P1D6), α6 (NKI-GoH3), β3 (B3A; Chemicon), av (AV1), β1 (6S6; Millipore), or β3 (B3A) subunits at 37° C. for 15 minutes. […] The attached cells were quantified as described in Example 6."}, "[10]": {"tested_on": "human osteogenic cells", "test": "Cell attachment assay on coated plates", "type": "cell-based", "details": "for coating concentration at which cell attachment activity reached a maximum level: osteogenic cells, dose-response; for cell attachment activity of osteogenic cells: substrate-coated plates, serum-free medium, 1 hour", "source_text": "as §1"}, "[11]": {"tested_on": "osteogenic cells", "test": "Cell migration assay (transwell)", "type": "cell-based, human", "details": "24 hours", "experimental": "Cell migration assays were performed with transwell migration chambers (pore size, 8 μm; Corning). […] Cells (2×10^5 cells/mL) were resuspended in DMEM containing 0.5% FBS and 0.1% BSA. This suspension (100 μL) was seeded in the upper chamber of a transwell filter. After seeding the […] (100 μL) to the upper chamber of the transwell migration chambers, the cells were allowed to migrate at 37° C. for 24 hours. Cells were then fixed with 10% formalin for 15 minutes and stained with 0.5% crystal violet. Unmigrated cells, those remaining in the upper side of the transwell filter, were removed with a cotton swab and counted under light microscopy. Cell migration was quantified by counting the number of cells that had migrated through the filter."}, "[12]": {"details": "VnP-16-coated plates, osteogenic differentiation medium, PF-573228 1 μM, 2 weeks"}}, "note": "“Also recorded” adds a separate entry of the source. Where no end group is shown, it is not given here.", "data": [{"molecule": "FVWRQFYKYEKG (SEQ ID NO: 23) (Scrambled peptide) [SP, scrambled peptide used as control, reference compound]", "values": [{"measurement": "cell spreading", "setting": "[1]", "value": "ineffective"}, {"measurement": "new bone formation in calvarial defects (μCT images)", "setting": "[2]", "value": "only limited new bone formation"}]}, {"molecule": "biotinylated VnP-16: biotin-conjugated VnP-16 peptide used for pulldown (RVYFFKGKQYWE-NH2; also: biotinylated)", "values": [{"measurement": "binding of β1 integrin in pulldown", "setting": "[3]", "value": "selectively bound"}]}, {"molecule": "RVYFFKGKQYWE-NH2 [VnP-16, RVYFFKGKQYWE (SEQ ID NO: 17)]", "values": [{"measurement": "viability of cells or cell lines tested", "setting": "[4]", "value": "did not affect"}, {"measurement": "cell proliferation and viability of BMMs", "setting": "[5]", "value": "did not affect"}, {"measurement": "viability of osteoclasts", "setting": "[6]", "value": "no effect"}]}, {"molecule": "CS(=O)(=O)c1cccc(CNc2nc(Nc3ccc4c(c3)CCC(=O)N4)ncc2C(F)(F)F)c1", "note": "[PF-573228]", "values": [{"measurement": "cell attachment to VnP-16 after pretreatment of PF-573228", "setting": "[7]", "value": "significantly inhibited in a dose-dependent manner"}, {"measurement": "cell growth", "setting": "[8]", "value": "did not affect"}, {"measurement": "alkaline phosphatase (ALP) activity", "setting": "[8]; [12]", "value": "notably weakened"}, {"measurement": "calcium deposition", "setting": "[8]; [12]", "value": "reduced"}]}, {"molecule": "[Cl][Mn][Cl]", "note": "[Mn^2+, MnCl2]", "values": [{"measurement": "cell attachment to VnP-16 after pretreatment of cells", "setting": "[9]", "value": "significantly enhanced"}]}, {"molecule": "heparin", "values": [{"measurement": "cell attachment to VnP-16 after pretreatment of cells", "setting": "[9]", "value": "not inhibited"}]}, {"molecule": "O=C(O)CN(CCN(CC(=O)O)CC(=O)O)CC(=O)O", "note": "[EDTA]", "values": [{"measurement": "cell attachment to VnP-16 after pretreatment of cells", "setting": "[9]", "value": "completely inhibited"}]}, {"molecule": "B1", "values": [{"measurement": "coating concentration at which cell attachment activity reached a maximum level", "setting": "[10]", "value": "about 5.7 μg/cm^2"}, {"measurement": "cell attachment activity of osteogenic cells", "setting": "[10]", "value": "lower cell attachment activity compared to that of rVn-FI; also recorded: adhered; also recorded: promoted cell attachment, although to a lower extent than full-length vitronectin; also recorded: significant cell attachment activity"}, {"measurement": "cell spreading", "setting": "[1]", "value": "induced no cell spreading or migration"}, {"measurement": "cell migration", "setting": "[11]", "value": "induced no cell spreading or migration"}]}, {"molecule": "B2", "values": [{"measurement": "cell attachment activity of osteogenic cells", "setting": "[10]", "value": "did not adhere"}, {"measurement": "cell spreading", "setting": "[1]", "value": "induced no cell spreading or migration"}, {"measurement": "cell migration", "setting": "[11]", "value": "induced no cell spreading or migration"}]}, {"molecule": "B3", "values": [{"measurement": "coating concentration at which cell attachment activity reached a maximum level", "setting": "[10]", "value": "about 5.7 μg/cm^2"}, {"measurement": "cell attachment activity of osteogenic cells", "setting": "[10]", "value": "adhered; also recorded: promoted cell attachment, although to a lower extent than full-length vitronectin"}, {"measurement": "cell spreading", "setting": "[1]", "value": "induced cell spreading and migration"}, {"measurement": "cell migration", "setting": "[11]", "value": "induced cell spreading and migration"}]}, {"molecule": "B4", "values": [{"measurement": "cell attachment activity of osteogenic cells", "setting": "[10]", "value": "strongly promoted"}, {"measurement": "cell spreading", "setting": "[1]", "value": "strongly promoted"}, {"measurement": "cell migration", "setting": "[11]", "value": "strongly promoted"}]}]}
